Laboratory results: patent US20230220589A1
Each block holds one binder with its values, some of them ahead of it.

What was measured:
[1] = molecular target: M17-modified I NTAA target peptides; assay: encoding assay; P2 D;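 further: fraction of recording tags encoded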
[2] = molecular target: M17-modified G NTAA target peptides; assay: encoding assay; P2 D;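 further: fraction of recording tags encoded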
[3] = molecular target: M17-modified V NTAA target peptides; assay: encoding assay; P2 D;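 further: fraction of recording tags encoded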
[4] = molecular target: M17-modified W NTAA target peptides; assay: encoding assay; P2 D;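 further: fraction of recording tags encoded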
[5] = molecular target: M17-modified S NTAA target peptides; assay: encoding assay; P2 D;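 further: fraction of recording tags encoded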
[6] = molecular target: M17-modified H NTAA target peptides; assay: encoding assay; P2 D;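 further: fraction of recording tags encoded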
[7] = molecular target: M17-modified L NTAA target peptides; assay: encoding assay; P2 D;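 further: fraction of recording tags encoded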
[8] = molecular target: M17-modified Y NTAA target peptides (M17-Y-P2-peptide); assay: encoding assay; P2 D;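 further: fraction of recording tags encoded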
[9] = molecular target: M17-modified D NTAA target peptides; assay: encoding assay; P2 D;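 further: fraction of recording tags encoded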
[10] = molecular target: M17-modified A NTAA target peptides; assay: encoding assay; P2 D;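 further: fraction of recording tags encoded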
[11] = molecular target: M17-modified F NTAA target peptides; assay: encoding assay; P2 D;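 further: fraction of recording tags encoded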
[12] = molecular target: M17-modified Q NTAA target peptides; assay: encoding assay; P2 D;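 further: fraction of recording tags encoded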
[13] = molecular target: M17-modified G NTAA target peptides; assay: encoding assay; P2 M;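 further: fraction of recording tags encoded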
[14] = molecular target: M17-modified E NTAA target peptides; assay: encoding assay; P2 M;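 further: fraction of recording tags encoded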
[15] = molecular target: M17-modified V NTAA target peptides; assay: encoding assay; P2 M;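 further: fraction of recording tags encoded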
[16] = molecular target: M17-modified W NTAA target peptides; assay: encoding assay; P2 M;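 further: fraction of recording tags encoded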
[17] = molecular target: M17-modified M NTAA target peptides; assay: encoding assay; P2 M;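 further: fraction of recording tags encoded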
[18] = molecular target: M17-modified N NTAA target peptides; assay: encoding assay; P2 M;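 further: fraction of recording tags encoded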
[19] = molecular target: M17-modified H NTAA target peptides; assay: encoding assay; P2 M;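 further: fraction of recording tags encoded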
[20] = molecular target: M17-modified L NTAA target peptides; assay: encoding assay; P2 M;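 further: fraction of recording tags encoded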
[21] = molecular target: M17-modified Y NTAA target peptides (M17-Y-P2-peptide); assay: encoding assay; P2 M;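 further: fraction of recording tags encoded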
[22] = molecular target: M17-modified D NTAA target peptides; assay: encoding assay; P2 M;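 further: fraction of recording tags encoded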
[23] = molecular target: M17-modified A NTAA target peptides; assay: encoding assay; P2 M;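 further: fraction of recording tags encoded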
[24] = molecular target: M17-modified Q NTAA target peptides; assay: encoding assay; P2 M;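 further: fraction of recording tags encoded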
[25] = molecular target: M17-modified T NTAA target peptides; assay: encoding assay; P2 M;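 further: fraction of recording tags encoded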
[26] = molecular target: M17-modified I NTAA target peptides; assay: encoding assay; P2 A;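 further: fraction of recording tags encoded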
[27] = molecular target: M17-modified G NTAA target peptides; assay: encoding assay; P2 A;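 further: fraction of recording tags encoded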
[28] = molecular target: M17-modified E NTAA target peptides; assay: encoding assay; P2 A;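 further: fraction of recording tags encoded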
[29] = molecular target: M17-modified V NTAA target peptides; assay: encoding assay; P2 A;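 further: fraction of recording tags encoded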
[30] = molecular target: M17-modified W NTAA target peptides; assay: encoding assay; P2 A;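 further: fraction of recording tags encoded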
[31] = molecular target: M17-modified M NTAA target peptides; assay: encoding assay; P2 A;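 further: fraction of recording tags encoded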
[32] = molecular target: M17-modified N NTAA target peptides; assay: encoding assay; P2 A;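 further: fraction of recording tags encoded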
[33] = molecular target: M17-modified H NTAA target peptides; assay: encoding assay; P2 A;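 further: fraction of recording tags encoded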
[34] = molecular target: M17-modified L NTAA target peptides; assay: encoding assay; P2 A;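 further: fraction of recording tags encoded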
[35] = molecular target: M17-modified Y NTAA target peptides (M17-Y-P2-peptide); assay: encoding assay; P2 A;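 further: fraction of recording tags encoded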
[36] = molecular target: M17-modified D NTAA target peptides; assay: encoding assay; P2 A;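 further: fraction of recording tags encoded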
[37] = molecular target: M17-modified A NTAA target peptides; assay: encoding assay; P2 A;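 further: fraction of recording tags encoded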
[38] = molecular target: M17-modified F NTAA target peptides; assay: encoding assay; P2 A;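 further: fraction of recording tags encoded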
[39] = molecular target: M17-modified Q NTAA target peptides; assay: encoding assay; P2 A;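 further: fraction of recording tags encoded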
[40] = molecular target: M17-modified P NTAA target peptides; assay: encoding assay; P2 A;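 further: fraction of recording tags encoded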
[41] = molecular target: M17-modified T NTAA target peptides; assay: encoding assay; P2 A;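 further: fraction of recording tags encoded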
[42] = molecular target: M44-modified P NTAA target peptides; assay: encoding assay; P2 D;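 further: fraction of recording tags encoded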
[43] = molecular target: M44-modified S NTAA target peptides; assay: encoding assay; P2 D
[44] = molecular target: M44-modified H NTAA target peptides; assay: encoding assay; P2 D;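 further: fraction of recording tags encoded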
[45] = molecular target: M44-modified E NTAA target peptides; assay: encoding assay; P2 D;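 further: fraction of recording tags encoded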
[46] = molecular target: M44-modified H NTAA target peptides; assay: encoding assay; P2 M;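 further: fraction of recording tags encoded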
[47] = molecular target: M44-modified W NTAA target peptides; assay: encoding assay; P2 M;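 further: fraction of recording tags encoded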
[48] = molecular target: M44-modified A NTAA target peptides (M44-A-P2-peptide); assay: encoding assay; P2 M;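 further: fraction of recording tags encoded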
[49] = molecular target: M44-modified Q NTAA target peptides; assay: encoding assay; P2 M;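 further: fraction of recording tags encoded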
[50] = molecular target: M44-modified P NTAA target peptides; assay: encoding assay; P2 A;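 further: fraction of recording tags encoded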
[51] = molecular target: M44-modified S NTAA target peptides; assay: encoding assay; P2 A
[52] = molecular target: M44-modified D NTAA target peptides; assay: encoding assay; P2 A;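 further: fraction of recording tags encoded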
[53] = molecular target: M44-modified T NTAA target peptides; assay: encoding assay; P2 A;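 further: fraction of recording tags encoded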
[54] = molecular target: M44-modified E NTAA target peptides; assay: encoding assay; P2 A;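 further: fraction of recording tags encoded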

encoding yield [1]: 0.01
encoding yield [2]: 0.03
encoding yield [3]: 0.02
encoding yield [4]: 0.02
encoding yield [5]: 0.01
encoding yield [6]: 0.01
encoding yield [7]: 0.02
encoding yield [8]: 0.05
encoding yield [9]: 0.01
encoding yield [10]: 0.02
encoding yield [11]: 0.04
encoding yield [12]: 0.01
encoding yield [13]: 0.01
encoding yield [14]: 0.02
encoding yield [15]: 0.03
encoding yield [16]: 0.01
encoding yield [17]: 0.01
encoding yield [18]: 0.02
encoding yield [19]: 0.01
encoding yield [20]: 0.02
encoding yield [21]: 0.1
encoding yield [22]: 0.02
encoding yield [23]: 0.01
encoding yield [24]: 0.01
encoding yield [25]: 0.04
encoding yield [26]: 0.02
encoding yield [27]: 0.02
encoding yield [28]: 0.01
encoding yield [29]: 0.01
encoding yield [30]: 0.04
encoding yield [31]: 0.02
encoding yield [32]: 0.02
encoding yield [33]: 0.02
encoding yield [34]: 0.02
encoding yield [35]: 0.12
encoding yield [36]: 0.01
encoding yield [37]: 0.02
encoding yield [38]: 0.04
encoding yield [39]: 0.02
encoding yield [40]: 0.01
encoding yield [41]: 0.01
B1: engineered M17-Y binder (SEQ ID NO: 61) (designed binder, not shown: small tags and cut ends; large carriers)
chain: TVPDRSEIAGKWYVVALASNTEFYLREKDWVKSAMARISFLGEDELKVSSAVPSPNGCYKVERTWKKTSDDGEVYNSRAAKLKVEVLDTDYKSYAVIYATRVKDGRTDHQMILYSRSPEVSPAATAIFRKLAGERNYTDEMVAMLPRQEECTVDEV

encoding yield [42]: 0.01
encoding yield [43]: 0.01
encoding yield [44]: 0.01
encoding yield [45]: 0.01
encoding yield [46]: 0.01
encoding yield [47]: 0.03
encoding yield [48]: 0.02
encoding yield [49]: 0.01
encoding yield [50]: 0.01
encoding yield [51]: 0.01
encoding yield [52]: 0.02
encoding yield [53]: 0.01
encoding yield [54]: 0.02
B4: engineered M44-L binder (SEQ ID NO: 31) (designed binder, not shown: small tags and cut ends; large carriers)
chain: QDSTQNLIPAPPLISVPLQPGFWTERFQGRWFLVGFAGNAVQKERQSRLTMQSLILELQEDNSYNITAINVRGQGCRYIISTLVPSSRPGQFTLGNIHSYPQIQSLDVQVADTDYDQFAMVFLQGTSENKQYFEVALAGRTKGLSDELKERFVSFAKSLGLKDNNIVFSVPTDQCIDN

More lines, now with the values behind:

B2: upgraded binder after additional maturation round (SEQ ID NO: 62) (designed binder, not shown: small tags and cut ends; large carriers)
chain: TVPDRSEIAGKWYVVALASNTEFYLRGKDRVKSAMVRISFQGEDELKVSSAVPSPNGCYKVERTWKKTSDDGEVYNSRAAKLKVEVLDTDYKSYAVIYATRVKDRRTDHQMILYSRSPDVSPAATAIFRKLAGERNYTDEMVAMLPRQEECTVDEV
encoding yield [1]: 0.02
encoding yield [2]: 0.03
encoding yield [3]: 0.02
encoding yield [4]: 0.03
encoding yield [5]: 0.01
encoding yield [6]: 0.02
encoding yield [7]: 0.03
encoding yield [8]: 0.1
encoding yield [9]: 0.02
encoding yield [10]: 0.03
encoding yield [11]: 0.05
encoding yield [12]: 0.02
encoding yield [13]: 0.02
encoding yield [14]: 0.03
encoding yield [15]: 0.03
encoding yield [16]: 0.03
encoding yield [17]: 0.02
encoding yield [18]: 0.02
encoding yield [19]: 0.01
encoding yield [20]: 0.04
encoding yield [21]: 0.23
encoding yield [22]: 0.02
encoding yield [23]: 0.02
encoding yield [24]: 0.01
encoding yield [25]: 0.05
encoding yield [26]: 0.03
encoding yield [27]: 0.03
encoding yield [28]: 0.02
encoding yield [29]: 0.02
encoding yield [30]: 0.08
encoding yield [31]: 0.03
encoding yield [32]: 0.03
encoding yield [33]: 0.02
encoding yield [34]: 0.04
encoding yield [35]: 0.24
encoding yield [36]: 0.02
encoding yield [37]: 0.02
encoding yield [38]: 0.09
encoding yield [39]: 0.02
encoding yield [40]: 0.01
encoding yield [41]: 0.01

B3: engineered M44-A binder (SEQ ID NO: 42) (designed binder, not shown: small tags and cut ends; large carriers)
chain: QVSVQPNFQQDKFLGRWFVAGLASNSSWDREKVAALSGAKMVVAPATDGGLNVTRTMLRKNQCETYTGLLQPAGSLGSYSWRSPHPGSTGSESVVETDYDQYALVYGQGSKGPGEDLRAAALWSRTQTPRAELKEKFTAFSKAQGFTEDTIVFLPQTDKCMTEQ
encoding yield [42]: 0.01
encoding yield [43]: 0.01
encoding yield [44]: 0.01
encoding yield [45]: 0.01
encoding yield [46]: 0.01
encoding yield [47]: 0.01
encoding yield [48]: 0.1
encoding yield [49]: 0.01
encoding yield [50]: 0.01
encoding yield [51]: 0.01
encoding yield [52]: 0.02
encoding yield [53]: 0.01
encoding yield [54]: 0.02
